Source: patent US20130344069A1 (SORRENTO THERAPEUTICS, published 2013)

Tests used:
[1] = biological target: T1, IGF1R on MCF7 breast cancer cells (UniProt P08069 31-1367, limits assumed); assay: cell-based or functional assay
[2] = biological target: T1, IGF1R on MCF7 breast cancer cells; assay: flow cytometry on MCF7 cells, PE goat anti-human IgG secondary, median FL2-H, non-linear regression fit, the concentration axis is LogM
Method: (§1) This example illustrates in vitro data for anti-IGF1R antibodies cellular binding EC₅₀ measurements. […] In this example, the experimental procedure is as follows: 50,000 MCF7 breast cancer cells were aliquoted into the wells of a 96-well, v-bottom plate in 100 μl FACS Buffer (PBS+2% FBS). Cells were spun down, washed 1× with FACS Buffer, and then resuspended in 25 μl of antibody solution in triplicate. After 0.5 hr incubation, cells were washed 1× with FACS Buffer and resuspended in 50 μl PE-conjugated, goat anti-human IgG (γ-chain specific) secondary antibody (Southern Biotech Cat #2040-09). Cells were further incubated for 0.5 hr and then washed 1× with FACS Buffer. Cells were resuspended in 25 μl FACS Buffer and the median fluorescence intensity in the FL2-H channel was determined using the Intellicyt HTFC flow cytometer.
(§2) While these values range over orders of magnitude, all antibodies show strong, specific binding to MCF7 cells expressing IGF1R. Data was collected on the Intellicyt HTFC flow cytometer, processed using FlowJo software, and analyzed and plotted in Graph Pad Prizm using non-linear regression fit. Data points are shown as the median fluorescence intensity (MFI) of positively labeled cells +/− Std Error.

[3] = biological target: T1, IGF1R on MCF7 breast cancer cells; assay: flow cytometry, binding to MCF7 cells, PE anti-human IgG detection
Method: as §1, §2

rhIGF1R = biological target: T2, rhIGF1R (human, UniProt P08069 31-932, limits assumed); assay: BLI, Forte Bio Octet Red; B9 on anti-hIgG Fc capture sensor
T2 construct: Recombinant protein used in the Octet measurements; also called recombinant human IGF1R
T2 sequence (P08069 31-932 limits assumed): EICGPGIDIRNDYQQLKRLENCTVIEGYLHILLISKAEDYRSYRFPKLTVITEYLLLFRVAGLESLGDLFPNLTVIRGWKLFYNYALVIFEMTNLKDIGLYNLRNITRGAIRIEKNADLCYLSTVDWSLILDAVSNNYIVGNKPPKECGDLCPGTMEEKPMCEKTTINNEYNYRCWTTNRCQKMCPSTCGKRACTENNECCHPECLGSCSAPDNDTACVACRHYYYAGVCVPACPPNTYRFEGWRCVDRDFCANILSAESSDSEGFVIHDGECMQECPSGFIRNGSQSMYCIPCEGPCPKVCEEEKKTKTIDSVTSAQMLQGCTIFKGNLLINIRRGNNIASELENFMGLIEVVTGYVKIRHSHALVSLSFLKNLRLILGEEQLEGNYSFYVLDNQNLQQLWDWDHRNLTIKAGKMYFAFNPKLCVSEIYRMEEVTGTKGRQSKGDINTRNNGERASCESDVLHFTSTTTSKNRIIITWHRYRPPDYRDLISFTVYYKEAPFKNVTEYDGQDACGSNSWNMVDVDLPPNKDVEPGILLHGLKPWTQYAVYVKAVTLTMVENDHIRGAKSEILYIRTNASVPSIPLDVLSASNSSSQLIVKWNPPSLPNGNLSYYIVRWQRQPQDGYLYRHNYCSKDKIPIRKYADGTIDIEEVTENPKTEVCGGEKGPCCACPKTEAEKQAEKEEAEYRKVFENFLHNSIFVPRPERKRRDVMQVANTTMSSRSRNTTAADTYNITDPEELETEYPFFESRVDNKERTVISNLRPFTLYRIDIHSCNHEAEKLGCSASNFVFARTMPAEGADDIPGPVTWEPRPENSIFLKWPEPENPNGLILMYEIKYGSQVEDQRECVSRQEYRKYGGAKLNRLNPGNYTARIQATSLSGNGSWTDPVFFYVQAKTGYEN

Insulin Receptor = Insulin Receptor (UniProt P06213-2 28-944, limits assumed); assay: ELISA, one condition
Sequence of Insulin Receptor (P06213 other isoform, or with tags, fused parts or gaps limits assumed): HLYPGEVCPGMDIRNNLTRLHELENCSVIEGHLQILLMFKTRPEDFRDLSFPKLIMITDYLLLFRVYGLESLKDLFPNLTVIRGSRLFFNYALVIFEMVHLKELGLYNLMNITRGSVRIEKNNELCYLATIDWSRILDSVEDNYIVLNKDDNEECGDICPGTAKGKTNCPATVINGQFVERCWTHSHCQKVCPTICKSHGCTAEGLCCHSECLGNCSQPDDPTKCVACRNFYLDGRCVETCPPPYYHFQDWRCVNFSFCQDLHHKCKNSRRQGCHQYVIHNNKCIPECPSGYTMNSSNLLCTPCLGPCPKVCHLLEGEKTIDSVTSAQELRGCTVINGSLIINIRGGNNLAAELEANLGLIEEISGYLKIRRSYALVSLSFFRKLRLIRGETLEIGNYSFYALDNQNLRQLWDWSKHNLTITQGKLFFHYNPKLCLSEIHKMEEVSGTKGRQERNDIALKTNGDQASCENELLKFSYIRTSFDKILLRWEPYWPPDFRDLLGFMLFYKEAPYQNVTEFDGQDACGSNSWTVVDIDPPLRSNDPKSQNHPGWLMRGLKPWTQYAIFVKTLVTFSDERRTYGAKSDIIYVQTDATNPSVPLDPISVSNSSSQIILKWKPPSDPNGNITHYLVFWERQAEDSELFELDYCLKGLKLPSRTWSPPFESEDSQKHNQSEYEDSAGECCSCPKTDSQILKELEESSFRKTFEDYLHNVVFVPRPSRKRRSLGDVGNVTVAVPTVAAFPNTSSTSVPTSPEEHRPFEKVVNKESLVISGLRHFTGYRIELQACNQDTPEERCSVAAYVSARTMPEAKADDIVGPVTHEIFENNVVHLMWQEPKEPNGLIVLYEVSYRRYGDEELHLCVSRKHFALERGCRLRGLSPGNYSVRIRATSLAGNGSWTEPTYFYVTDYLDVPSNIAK

T1 sequence (P08069 31-1367 limits assumed): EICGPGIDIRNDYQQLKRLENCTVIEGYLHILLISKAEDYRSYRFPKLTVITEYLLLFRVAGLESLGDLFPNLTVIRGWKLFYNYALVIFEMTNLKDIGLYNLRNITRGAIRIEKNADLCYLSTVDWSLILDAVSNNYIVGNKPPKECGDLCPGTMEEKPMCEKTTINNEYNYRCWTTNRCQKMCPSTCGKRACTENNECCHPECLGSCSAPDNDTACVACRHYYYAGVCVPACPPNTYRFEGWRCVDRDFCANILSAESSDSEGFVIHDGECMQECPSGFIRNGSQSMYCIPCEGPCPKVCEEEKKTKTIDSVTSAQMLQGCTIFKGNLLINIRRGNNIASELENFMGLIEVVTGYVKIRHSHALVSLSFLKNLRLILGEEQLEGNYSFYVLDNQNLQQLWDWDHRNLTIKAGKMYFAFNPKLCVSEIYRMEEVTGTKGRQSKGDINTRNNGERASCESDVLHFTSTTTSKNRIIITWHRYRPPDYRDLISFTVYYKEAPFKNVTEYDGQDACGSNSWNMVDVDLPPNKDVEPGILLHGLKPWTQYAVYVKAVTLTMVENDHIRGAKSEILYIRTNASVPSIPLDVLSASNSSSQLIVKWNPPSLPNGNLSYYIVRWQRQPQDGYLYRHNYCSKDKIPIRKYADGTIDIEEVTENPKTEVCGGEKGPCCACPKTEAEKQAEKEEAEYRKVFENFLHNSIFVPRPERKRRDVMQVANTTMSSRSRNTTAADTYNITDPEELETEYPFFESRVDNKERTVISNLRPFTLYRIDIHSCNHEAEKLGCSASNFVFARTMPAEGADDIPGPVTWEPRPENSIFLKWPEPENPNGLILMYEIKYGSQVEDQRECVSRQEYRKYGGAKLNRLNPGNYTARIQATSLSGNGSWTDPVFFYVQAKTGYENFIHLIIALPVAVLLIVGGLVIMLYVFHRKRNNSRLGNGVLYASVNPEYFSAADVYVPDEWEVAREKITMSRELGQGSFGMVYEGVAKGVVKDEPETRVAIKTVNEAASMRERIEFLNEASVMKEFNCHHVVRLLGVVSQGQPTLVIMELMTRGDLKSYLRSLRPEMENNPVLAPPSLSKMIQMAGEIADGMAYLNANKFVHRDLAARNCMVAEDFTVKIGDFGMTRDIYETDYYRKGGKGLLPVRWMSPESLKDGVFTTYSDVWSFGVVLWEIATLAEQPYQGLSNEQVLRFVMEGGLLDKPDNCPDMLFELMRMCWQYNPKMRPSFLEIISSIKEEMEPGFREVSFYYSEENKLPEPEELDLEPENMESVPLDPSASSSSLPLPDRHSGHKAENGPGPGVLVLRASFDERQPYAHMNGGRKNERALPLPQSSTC

B1: anti-IGF1R antibody B9 (antibody, V domains shown)
VH: EVQLLESGGGLVQPGGSLRLSCAASGFTFSSYEMNWVRQAPGKGLEWVSYISTGDSTRSYADSVRGRFTISRDNAKNSLYLQMNSLRAEDTAVYYCARESGTWYGGWYFDLWGRGTLVTVSS
VL: QSVVTQPPSVSAAPGQKVTISCAGSTSNIGNNFVSWYQQLPGTAPKLLIYDNNKRPSEIPDRFSGSKSGTSATLGITGLQTGDEADYYCVTWDSSLSVVLFGGGTKVTVL
notes: Fully human antibody of an IgG class (captured on an anti-hIgG Fc sensor, detected with anti-human IgG); also called clone B9
Question: For B1, which “IC50 of inhibition of IGF1-stimulated IGF1R auto-phosphorylation in MCF7 cells” value [1] is on record?
Answer: The value was 0.094 nM.

Question: What about the EC50 [2] of the same binder?
Answer: The EC50 was 0.0374 nM.

Question: And the EC50 [3]?
Answer: The EC50 was 0.0037 nM.

Question: What about the Kd (rhIGF1R) of the same binder?
Answer: Its Kd is 1.25 nM.

Question: Does B1 bind (Insulin Receptor)?
Answer: Result: no binding (tested: not given)

B2: anti-IGF1R antibody A6 (antibody, V domains shown)
VH: QVQLVQSGAEVMKPGASVKVSCKASGYTFTSYGISWVRQAPGQGLEWMGWISAYNGNTNYAQMLQGRVTMTTDTSTSTAYMELRSLRSDDTAVYYCARRGLSSYYYGMDVWGQGTTVTVSS
VL: QPVLTQPPSVSAAPGQKVTISCSGGTSNVANNYVSWYQQLPGTAPKLLIYGNSNRPSGVPDRFSGSKSGTSASLAITGLQAEDEADYYCQSYDTSLSGYVFGSGTKVTVL
notes: also called clone A6
Question: Which EC50 [2] does the source give for B2 here?
Answer: Its EC50 is 0.705 nM.

B3: anti-IGF1R antibody B10 (antibody, V domains shown)
VH: QVQLVQSGAEVKKPGASVKVSCKGSGYNFPTQAIHWVRQAPGQRLEWMGWTNTANGNAKYSQKFQGRVTITRDTYASTDYMELSSLTSEDTAIYYCTRDRFTGSGTYGMDVWGQGTTVTVSS
VL: SYELMQPSSVSVSPGQTARITCSGDLLTRRYARWFQQKPGQAPLLIIYRDTVRPSGIPERFSASSSGATITLTISGAQLEDEADYYCYSATDNNVVFGGGTKLTVL
notes: Fully human antibody of an IgG class; also called clone B10
Question: B3 was tested. Which EC50 [2] did it give?
Answer: The EC50 was 5.83 nM.

Question: Does B3 bind (Insulin Receptor)?
Answer: Result: no binding (tested: not given)

B4: anti-IGF1R antibody C8 (antibody, V domains shown)
VH: QVQLVQSGAEVKKPGSSVKVSCKASGGSFNSFSISWVRQAPGQGLEWMGGITPMFGIGDNAQKFQDRVAITADESMSTFYMELSNLRFEDTAMYFCAREVGGLGFDVWGQGTTVTVSS
VL: VIWMTQSPSSLSASVGDRVTFTCQASQHISKYLNWYQQKPGKAPKLLIYDASNLETGVPSRFSGSGSATDFTLTISSLQPEDFATYYCQQSYLTSYTFGQGTKVDIK
notes: Fully human antibody of an IgG class; also called clone C8
Question: With B4 as the binder, how does the EC50 [2] read?
Answer: The EC50 was 16.1 nM.

Question: Does B4 bind (Insulin Receptor)?
Answer: Result: no binding (tested: not given)
